Where a chain is given by its changes, count along the chain named.
B1: anti-trkC agonist monoclonal antibody 6.4.1 (antibody, human IgG2, V domains shown)
VH: QVQLQESGPGLVRPSETLSLTCTVSGGSISTYYWNWIRQPAGKGLEWIGRIYTSGSTNYNPSLKSRVTMSVDTSKNQFSLKLSSVTAADTAVYYCARDGGYSNPFDWGQGTLVTVSS
VL: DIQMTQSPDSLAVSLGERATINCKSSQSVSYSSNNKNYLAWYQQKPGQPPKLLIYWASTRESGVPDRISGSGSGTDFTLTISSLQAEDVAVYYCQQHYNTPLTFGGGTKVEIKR
notes: human IgG2 from Xenomouse hybridoma; heavy chain subgroup II, light chain kappa I; also called Mab 6.4.1
B2: anti-trkC agonist monoclonal antibody 2253 (antibody, mouse IgG1, V domains shown)
VH: QVQLQQSGAELMQPGASVKISCKSTGYTFSNFWIEWVKQRPGHGLEWIGEILPGSDNTNYNEKFKGKATFTADTSSNTAYMQLSSLTSEDSAVYYCARKNRNYYGNYVVWGAGTTLTVSS
VL: QIVLTQSPAIMSASPGEKVTITCSASSSVSYMYWFQQKPGTSPKLWIYSTSNLASGVPARFSGSGSGTSYSLTISRMEAEDAATYYCQQRSSYPLTFGAGTKLELKR
notes: murine IgG1; heavy chain subgroup IIA, light chain kappa IV
B3: anti-trkC agonist monoclonal antibody 2345 (antibody, human IgG2, V domains shown)
VH: QVQLQESGPGLVKPSQTLSLTCTVSGGSISSGGYYWSWIRQHPEKGLEWIGYIFYSGRTYYNPSLKSRVTISVDTSKNQFSLKLNSVTAADTAVYYCARERIAAAGADYYYNGLDVWGQGTTVTVSS
VL: EIVLTQSPGTLSLSPGERATLSCRASQSVSSNYLTWYQQKPGQAPRLLIYGASSRATGIPDRFSGSGSGTDFTLTISRLEPEDFAVYYCQQYGRSPPITFGQGTRLEIKR
notes: human IgG2 from Xenomouse hybridoma; heavy chain subgroup II, light chain kappa III
B4: anti-trkC agonist monoclonal antibody 2349 (antibody, human IgG4, V domains shown)
VH: B3 VH with G33Y, E44G, F54Y, R58S, V69L, N85S, A107T, D115A
VL: B3 VL with E1G, L21F, V29G, N32T, T35A
notes: human IgG4 from Xenomouse hybridoma; heavy chain subgroup II, light chain kappa III
B5: anti-trkC agonist monoclonal antibody 2256 (antibody, mouse IgG1, V domains shown)
VH: QVQLQQPGAELVKPGASVKLSCKASGYTFTSYWMHWVKQRPGQGLEWIGEIYPSNGRTNYNEKFKSKATLTVDKSSSTAYMQLSSLTSEDSAVYYCARKYYYGNSYRSWYFDVWGAGTTLTVSS
VL: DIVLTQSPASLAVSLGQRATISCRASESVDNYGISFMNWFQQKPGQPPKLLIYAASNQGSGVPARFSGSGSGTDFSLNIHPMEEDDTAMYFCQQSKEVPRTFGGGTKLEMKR
notes: murine IgG1; heavy chain subgroup IIA, light chain kappa III
B6: neurotrophin-3 (NT-3) (ligand, UniProt P20783 139-257, looked up)
chain: YAEHKSHRGEYSVCDSESLWVTDKSSAIDIRGHQVTVLGEIKTGNSPVKQYFYETRCKEARPVKNGCRGIDDKHWNSQCKTSQTYVRALTSENNKLVGWRWIRIDTSCVCALSRKIGRT

The binders below were run against T1, gD-tagged trkC (human trkC-gD) (human, UniProt Q16288 32-429) (assay: SPR (BIAcore), summary table).
T1 construct: purified antigen of the ELISAs and SPR; also called gD-trkC
T1 sequence (Q16288 32-429 S70N): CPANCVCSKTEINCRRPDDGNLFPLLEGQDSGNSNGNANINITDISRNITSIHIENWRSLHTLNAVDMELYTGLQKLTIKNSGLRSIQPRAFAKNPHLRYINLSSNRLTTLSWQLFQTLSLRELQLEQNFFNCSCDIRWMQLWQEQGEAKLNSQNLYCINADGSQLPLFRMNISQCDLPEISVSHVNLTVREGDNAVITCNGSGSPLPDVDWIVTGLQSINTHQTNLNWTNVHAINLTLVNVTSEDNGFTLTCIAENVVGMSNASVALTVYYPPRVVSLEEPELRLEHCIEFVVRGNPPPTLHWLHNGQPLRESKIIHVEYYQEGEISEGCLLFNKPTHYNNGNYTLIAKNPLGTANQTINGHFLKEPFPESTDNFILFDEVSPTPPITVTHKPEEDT

Binder | Kd [nM]
B1 | 12
B2 | 42
B3 | 12.1
B4 | 23
B5 | 62

The binders below were run against T2, trkC fused with a gD flag epitope, on stably transfected CHO cells (KIRA) (assay: cell-based or functional assay).

Binder | EC50 (read off the curve), trkC tyrosine phosphorylation, KIRA [nM]
B1 | ~3
B3 | ~2
B4 | ~3
B6 | 5 to 9

Target: T2, trkC fused with a gD flag epitope, on …
Assay: cell-based or functional assay
Remark: another data set of the same source

Binder | EC50 (read off the curve), trkC tyrosine phosphorylation, KIRA [nM]
B6 | 5 to 9
B5 | ~4

These binders were tested against T3, trkC mutant L284E (human, UniProt Q16288 32-429, limits assumed) (assay: binding titration on trkC point mutants).
T3 construct: point mutant in domain 5
T3 sequence (Q16288 32-429 S70N/L315E limits assumed): as the sequence (Q16288 32-429 S70N) above, with L284E counted along it

Binder | ratio EC50 mutant/EC50 wildtype trkC [ratio]
B2 | 0.7
B5 | 1.1

The binders below were run against T4, trkC mutant R285A (human, UniProt Q16288 32-429, limits assumed) (assay: binding titration on trkC point mutants).
T4 construct: point mutant in domain 5
T4 sequence (Q16288 32-429 S70N/R316A limits assumed): as the sequence (Q16288 32-429 S70N) above, with R285A counted along it

Binder | ratio EC50 mutant/EC50 wildtype trkC [ratio]
B1 | 0.8
B2 | 0.9
B3 | 1
B4 | 0.9

What follows are binders tested against T5, trkC mutant L286H (human, UniProt Q16288 32-429, limits assumed) (assay: binding titration on trkC point mutants).
T5 construct: point mutant in domain 5
T5 sequence (Q16288 32-429 S70N/L317H limits assumed): as the sequence (Q16288 32-429 S70N) above, with L286H counted along it

Binder | ratio EC50 mutant/EC50 wildtype trkC [ratio]
B2 | 0.4
B3 | 0.5
B4 | 0.6
B5 | 0.6

These binders were tested against T6, trkC mutant E287K (human, UniProt Q16288 32-429, limits assumed) (assay: binding titration on trkC point mutants).
T6 construct: point mutant in domain 5
T6 sequence (Q16288 32-429 S70N/E318K limits assumed): as the sequence (Q16288 32-429 S70N) above, with E287K counted along it

Binder | ratio EC50 mutant/EC50 wildtype trkC [ratio]
B2 | 0.7
B5 | 0.7

The binders below were run against T7, trkC mutant H318A (human, UniProt Q16288 32-429, limits assumed) (assay: binding titration on trkC point mutants).
T7 construct: point mutant in domain 5
T7 sequence (Q16288 32-429 S70N/H349A limits assumed): as the sequence (Q16288 32-429 S70N) above, with H318A counted along it

Binder | ratio EC50 mutant/EC50 wildtype trkC [ratio]
B1 | 0.7
B2 | 0.8
B3 | 1
B4 | 0.7
B5 | 0.8

Each binder was assayed against T8, trkC mutant N335A (human, UniProt Q16288 32-429, limits assumed) (assay: binding titration on trkC point mutants).
T8 construct: point mutant in domain 5
T8 sequence (Q16288 32-429 S70N/N366A limits assumed): as the sequence (Q16288 32-429 S70N) above, with N335A counted along it

Binder | ratio EC50 mutant/EC50 wildtype trkC [ratio]
B1 | 0.3
B2 | 0.5
B4 | 1.5
B5 | 0.5

The binders below were run against T1, gD-tagged trkC (human trkC-gD) (assay: SPR (BIAcore), gD-trkC over immobilized IgG).

Binder | Kd [nM]
B1 | 28
B2 | 51
B5 | 300

Each binder was assayed against T1, gD-tagged trkC (human trkC-gD) (assay: SPR (BIAcore), IgG over immobilized gD-trkC (400-600 RU)).

Binder | Kd [nM]
B1 | 12
B2 | 42
B3 | 12
B4 | 23
B5 | 62

What follows are binders tested against T3, trkC mutant L284E (assay: binding to trkC point mutants (NB = no binding observed)).

Binder | binding result
B1 | no binding
B3 | no binding
B4 | no binding

These binders were tested against T4, trkC mutant R285A in the same assay as above.

Binder | binding result
B5 | no binding

Each binder was assayed against T5, trkC mutant L286H in the same assay as above.

Binder | binding result
B1 | no binding

The binders below were run against T6, trkC mutant E287K in the same assay as above.

Binder | binding result
B1 | no binding
B3 | no binding
B4 | no binding

Each binder was assayed against T8, trkC mutant N335A in the same assay as above.

Binder | binding result
B3 | no binding

Each binder was assayed against wildtype trkC (reference of Table 5) (human, UniProt Q16288 32-429, limits assumed) (assay: binding titration on trkC point mutants; wildtype reference row).
Sequence of wildtype trkC (reference of Table 5) (Q16288 32-429 S70N limits assumed): as the sequence (Q16288 32-429 S70N) above

Binder | ratio EC50 mutant/EC50 wildtype trkC [ratio]
B1 | 1
B2 | 1
B3 | 1
B4 | 1
B5 | 1

These binders were tested against T1, gD-tagged trkC (human trkC-gD) (assay: competition ELISA on gD-trkC; competitor: unlabelled 2250 (50 µg/ml); biotin-MAb 1 µg/ml; SA-HRP;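 also: negative control competitors were unlabelled human IgG2 and mouse IgG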).
Method: (§1) A competition ELISA was used to get preliminary information about various groups to which these antibodies belong depending on the epitope(s) on trkC they recognize. In this assay, trkC-gD (1 μg/ml) was used as a capture antigen to coat microliter plate. A specific biotinylated anti-trkC monoclonal antibody (1 μg/ml) was added to the coated plate either alone or in presence of another anti-trkC monoclonal antibody that was unlabeled and used in excess (50 μg/ml) as compared to the labeled antibody. If biotinylated antibody and unlabeled antibody both recognize the same or overlapping epitope, they will compete for binding to the immobilized trkC, resulting in decreased binding of the labeled antibody. If they recognize different and non-overlapping epitopes, there will be no competition between them, and the binding of the labeled antibody to the immobilized trkC will not be affected. Unlabeled human IgG2 and mouse IgG were used as negative control.

Binder | signal of the biotin-MAb in the competition ELISA
B1 | 0.1
B2 | 1.24
B3 | 0.04
B4 | 0.02
B5 | 0.01

What follows are binders tested against T1, gD-tagged trkC (human trkC-gD) (assay: competition ELISA on gD-trkC; competitor: unlabelled 2253 (50 µg/ml); biotin-MAb 1 µg/ml; SA-HRP;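 also: negative control competitors were unlabelled human IgG2 and mouse IgG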).
Method: as §1

Binder | signal of the biotin-MAb in the competition ELISA
B1 | 0.03
B2 | 0
B3 | 0.07
B4 | 0.03
B5 | 0.02

The binders below were run against T1, gD-tagged trkC (human trkC-gD) (assay: competition ELISA on gD-trkC; competitor: unlabelled 2256 (50 µg/ml); biotin-MAb 1 µg/ml; SA-HRP;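 also: negative control competitors were unlabelled human IgG2 and mouse IgG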).
Method: as §1

Binder | signal of the biotin-MAb in the competition ELISA
B1 | 0.1
B2 | 1.34
B4 | 0.02
B5 | 0.02

What follows are binders tested against T1, gD-tagged trkC (human trkC-gD) (assay: competition ELISA on gD-trkC; competitor: unlabelled 2345 (50 µg/ml); biotin-MAb 1 µg/ml; SA-HRP;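 also: negative control competitors were unlabelled human IgG2 and mouse IgG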).
Method: as §1

Binder | signal of the biotin-MAb in the competition ELISA
B1 | 0.12
B2 | 1.4
B3 | 0.04
B4 | 0.01

The binders below were run against T1, gD-tagged trkC (human trkC-gD) (assay: competition ELISA on gD-trkC; competitor: unlabelled 2349 (50 µg/ml); biotin-MAb 1 µg/ml; SA-HRP;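 also: negative control competitors were unlabelled human IgG2 and mouse IgG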).
Method: as §1

Binder | signal of the biotin-MAb in the competition ELISA
B1 | 0.1
B3 | 0.02
B4 | 0
B5 | 0.07

What follows are binders tested against T1, gD-tagged trkC (human trkC-gD) (assay: competition ELISA on gD-trkC; competitor: unlabelled 2.5.1 (50 µg/ml); biotin-MAb 1 µg/ml; SA-HRP;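 also: negative control competitors were unlabelled human IgG2 and mouse IgG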).
Method: as §1

Binder | signal of the biotin-MAb in the competition ELISA
B2 | 1.4
B3 | 0.17

Each binder was assayed against T1, gD-tagged trkC (human trkC-gD) (assay: competition ELISA on gD-trkC; competitor: unlabelled 6.1.2 (50 µg/ml); biotin-MAb 1 µg/ml; SA-HRP;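 also: negative control competitors were unlabelled human IgG2 and mouse IgG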).
Method: as §1

Binder | signal of the biotin-MAb in the competition ELISA
B3 | 0.11
B4 | 0.04
B5 | 0.13

Each binder was assayed against T1, gD-tagged trkC (human trkC-gD) (assay: competition ELISA on gD-trkC; competitor: unlabelled 6.4.1 (50 µg/ml); biotin-MAb 1 µg/ml; SA-HRP;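 also: negative control competitors were unlabelled human IgG2 and mouse IgG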).
Method: as §1

Binder | signal of the biotin-MAb in the competition ELISA
B1 | 0.07
B4 | 0.03
B5 | 0.12

— US20070036794A1 (Genentech, published 2007)
